In patent US20240343811A1 (SHANDONG SIMCERE BIOPHARMACUTICAL, published 2024):
Values joined by “and” are separate entries in the source; they are usually repeats but may differ in a detail not shown here. Identical values can stand only once.

How the values were obtained:
[1] = molecular target: T1, human CD16b (NA1), full length, on FlpinCHO cells (human, UniProt O75015 17-200); test: FACS on FlpinCHO cells
T1 construct: also called FlpinCHO-human CD16b (NA1)
T1 chain: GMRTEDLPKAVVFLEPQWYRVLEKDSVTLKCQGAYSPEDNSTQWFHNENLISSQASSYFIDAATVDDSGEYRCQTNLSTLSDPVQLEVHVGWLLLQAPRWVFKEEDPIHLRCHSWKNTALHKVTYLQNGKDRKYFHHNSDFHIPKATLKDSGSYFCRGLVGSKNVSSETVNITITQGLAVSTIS
In short: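 Trypsin-detached FlpinCHO cells expressing full-length CD16b were blocked in PBS+2% BSA and incubated on ice for 1 hour with antibody at varying concentrations. Binding read by flow cytometry as MFI; EC50 from curve fitting.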

[2] = molecular target: T2, cynomolgus monkey CD16, full length, on FlpinCHO cells (cynomolgus monkey, UniProt Q8SPW2 17-254); test: FACS on FlpinCHO cells
T2 construct: also called FlpinCHO-cyno CD16; Flipin CHO-cyno CD16
In short: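 FlpinCHO cells expressing full-length cynomolgus CD16, blocked in PBS/2% BSA at 2×10⁶ cells/ml, incubated with antibody at various concentrations 1 h on ice. Flow cytometry MFI fitted to give EC50.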

[3] = molecular target: T3, human CD16a (158V), full length, on cells (human, UniProt P08637 17-254); test: cell-based or functional assay
[4] = molecular target: T4, human CD16a (158F), full length, on FlpinCHO cells (human, UniProt P08637 17-254); test: FACS, biotinylated antibody
[5] = molecular target: T3, human CD16a (158V), full length, on …; test: FACS, biotinylated antibody
[6] = molecular target: T5, CD16 on primary human NK cells (human, UniProt P08637 17-254); test: FACS on human NK cells, biotinylated antibody; NK cells, no human immunoglobulin; Table 15
T5 construct: whole, on cells; also called resting NK cells

[7] = molecular target: T4, human CD16a (158F), full length, on …; test: FACS on FlpinCHO cells; no human immunoglobulin; unlabeled antibody, first batch of Table 10
Procedure: (§1) The required cells were scale-up cultured in a T-75 cell culture flask to the logarithmic growth phase. The medium was aspirated, and the cells were washed twice with a PBS buffer and then digested with trypsin. After the digestion was terminated, the cells were washed twice with the PBS buffer. The cells were counted, and then the cell pellet was resuspended with a [PBS+2% (w/w) BSA] blocking solution to 2×10⁶ cells/ml, and added to a 96-well FACS reaction plate at 50 μl/well. […] 50 μl/well of the antibody to be detected was added at different concentrations, and incubated on ice for 1 hour. […] The mixture was centrifuged and washed 5 times with PBS, and FACS (FACS Canto II, purchased from BD Company) was used for detection and result analysis. Data analysis was performed by software (CellQuest) to obtain the mean fluorescence intensity (MFI) of the cells. Then, software (GraphPad Prism8) was used for analysis, data fitting and EC50 value calculation.

[8] = molecular target: T3, human CD16a (158V), full length, on …; test: as above
Procedure: as §1

[9] = molecular target: T4, human CD16a (158F), full length, on …; test: FACS on FlpinCHO cells; no human immunoglobulin; unlabeled antibody, second batch of Table 10
Procedure: as §1

[10] = molecular target: T3, human CD16a (158V), full length, on …; test: as above
Procedure: as §1

[11] = molecular target: T3, human CD16a (158V), full length, on …; test: FACS, biotinylated antibody; biotinylated antibody, no human immunoglobulin; first batch of Table 11-1
Procedure: as §1, with “The” for “The required cells were scale-up cultured in a T-75 cell culture flask to the logarithmic growth phase. The”
(§2) An antibody to be detected was labeled in advance according to the instructions of a biotin labeling kit (EZ-Link™ NHS-PEG4 Biotinylation Kit, purchased from Thermofisher Scientific, catalog number: 21455). […] Detection was performed according to the method of Example 3.1, wherein the biotinylated antibody was detected with fluorescein APC-labeled Streptavidin (High Concentration) (purchased from Biolegend, catalog number: 405243).

[12] = molecular target: T4, human CD16a (158F), full length, on …; test: FACS, biotinylated antibody; biotinylated antibody, no human immunoglobulin; first batch of Table 12-2
Procedure: as §1, with “The” for “The required cells were scale-up cultured in a T-75 cell culture flask to the logarithmic growth phase. The”
as §2

[13] = molecular target: T5, CD16 on primary human NK cells; test: FACS on human NK cells, biotinylated antibody; NK cells, no human immunoglobulin; Table 29 (later experiment)

T2 sequence (Q8SPW2 other isoform, or with tags, fused parts or gaps limits assumed): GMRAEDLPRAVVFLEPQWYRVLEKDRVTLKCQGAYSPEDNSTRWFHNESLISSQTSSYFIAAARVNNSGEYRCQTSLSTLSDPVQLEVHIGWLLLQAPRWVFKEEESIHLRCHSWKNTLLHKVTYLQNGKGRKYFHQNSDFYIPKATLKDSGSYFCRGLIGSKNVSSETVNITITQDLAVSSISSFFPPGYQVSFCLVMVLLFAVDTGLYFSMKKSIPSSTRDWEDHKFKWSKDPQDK

EC50 [1]: 1.22 nM and 2.13 nM
EC50 [2]: 2.92 nM
Maximum mean fluorescence intensity [2]: 22300
EC50, activation activity for Jurkat cell [3]: 0.03 nM
Maximum fluorescence value [3]: 153000
EC50 [4]: 3.43 nM
Maximum mean fluorescence intensity [4]: 2010
EC50 [5]: 0.99 nM
Maximum mean fluorescence intensity [5]: 7520
EC50 [6]: 1.99 nM
EC50 [7]: ~0.82 nM
EC50 [8]: 0.56 nM
EC50 [9]: 1.63 nM
EC50 [10]: 1.13 nM
EC50 [11]: 0.7 nM
EC50 [12]: 1.73 nM
EC50 [13]: 4.45 nM
B1: 3G8 scFv-hFc (Fc fusion)
chain: DTVLTQSPASLAVSLGQRATISCKASQSVDFDGDSFMNWYQQKPGQPPKLLIYTTSNLESGIPARFSASGSGTDFTLNIHPVEEEDTATYYCQQSNEDPYTFGGGTKLEIKGGGGSGGGGSGGGGSQVTLKESGPGILQPSQTLSLTCSFSGFSLRTSGMGVGWIRQPSGKGLEWLAHIWWDDDKRYNPALKSRLTISKDTSSNQVFLKIASVDTADTATYYCAQINPAWFAYWGQGTLVTVSAEPKSSDKTHTCPPCPAPEEFGGPSVFLFPPKPKDTLMISRTPEVTCVVVAVSHEDPEVKFNWYVDGVEVHNAKTKPREEQYNSTYRVVSVLTVLHQDWLNGKEYKCKVSNKALPAPIEKTISKAKGQPREPQVYTLPPSREEMTKNQVSLTCLVKGFYPSDIAVEWESNGQPENNYKTTPPVLDSDGSFFLYSKLTVDKSRWQQGNVFSCSVMHEALHNHYTQKSLSLSPGK
notes: also called control antibody 3G8
